According to PMC9288967:

Molecular target: SARS-CoV-2 spike RBD (wild type) (SARS-CoV-2) (UniProt P0DTC2)
Assay: cross-linking

| Substance | kobs (apparent first-order constant of cross-linking) [h⁻¹] |
| --- | --- |
| mNb6(108FFY) (VHH) | 0.244 |
| mNb6(108FSY) (VHH) | 0.102 |
